3 substances from paper PMC10522637 can be followed below.

For the experiment, the target named is human Toll-like receptor 5 (3xFlag-hTLR5) (human) (UniProt O60602).
UniProt O60602, sequence (O60602 21-858): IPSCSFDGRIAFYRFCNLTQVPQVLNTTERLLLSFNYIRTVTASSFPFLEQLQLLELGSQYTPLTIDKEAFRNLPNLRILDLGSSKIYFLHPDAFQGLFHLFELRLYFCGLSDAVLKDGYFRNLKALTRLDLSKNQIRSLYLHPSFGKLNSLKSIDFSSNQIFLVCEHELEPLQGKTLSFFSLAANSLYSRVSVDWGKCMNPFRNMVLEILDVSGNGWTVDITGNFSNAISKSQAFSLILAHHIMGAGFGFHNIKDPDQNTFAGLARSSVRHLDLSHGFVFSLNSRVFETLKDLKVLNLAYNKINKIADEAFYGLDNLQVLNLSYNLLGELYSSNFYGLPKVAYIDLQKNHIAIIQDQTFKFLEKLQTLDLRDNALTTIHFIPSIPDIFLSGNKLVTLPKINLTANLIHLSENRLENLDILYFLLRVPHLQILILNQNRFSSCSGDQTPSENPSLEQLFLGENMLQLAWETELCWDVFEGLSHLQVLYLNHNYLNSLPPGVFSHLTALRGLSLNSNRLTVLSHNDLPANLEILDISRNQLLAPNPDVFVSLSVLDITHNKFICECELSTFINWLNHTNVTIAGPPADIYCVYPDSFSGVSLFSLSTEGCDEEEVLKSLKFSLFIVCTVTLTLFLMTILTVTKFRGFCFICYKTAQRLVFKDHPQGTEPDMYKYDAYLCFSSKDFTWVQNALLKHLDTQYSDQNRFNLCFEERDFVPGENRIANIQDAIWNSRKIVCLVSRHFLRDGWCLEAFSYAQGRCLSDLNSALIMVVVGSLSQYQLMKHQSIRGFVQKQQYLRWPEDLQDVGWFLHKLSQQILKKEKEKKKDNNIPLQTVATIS
“PNGase F-treated (deglycosylated) eFlaB (natural protein)” came in with an EC50 of TLR5-dependent NF-κB stimulating activity, HEK-Blue hTLR5 reporter cells of 3.88 nM.
Then “eukaryotic-expressed Vibrio vulnificus FlaB (eFlaB) (natural protein)”, with 13.8 nM; and “prokaryotic-expressed Vibrio vulnificus FlaB (pFlaB) (natural protein)”, with 3.32 nM.
